Blank lines part the entries; values can stand above or below the binder they belong to.
B1: ^HisTOM1 (His-TOM1 207-492) (domain or fragment)
chain: DTPIAPTPEQIGKLRSELEMVSGNVRVMSEMLTELVPTQAEPADLELLQELNRTCRAMQQRVLELIPQIANEQLTEELLIVNDNLNNVFLRHERFERFRTGQTTKAPSEAEPAADLIDMGPDPAATGNLSSQLAGMNLGSSSVRAGLQSLEASGRLEDEFDMFALTRGSSLADQRKEVKYEAPQATDGLAGALDARQQSTGAIPVTQACLMEDIEQWLSTDVGNDAEEPKGVTSEEFDKFLEERAKAADRLPNLSSPSAEGPPGPPSGPAPRKKTQEKDDDMLFAL
notes: human TOM1 residues 207-end (207-492); The ATPase assays used His-YFP-TOM1 436-461, the MNT-1 assays ^mCherryMST-TOM1 (299-end); also called TOM1 207-end; source: E. coli BL21 (DE3), purified (IMAC, SEC); not shown: His6, N-terminal, kept
B2: Myo6 ^YFPCBD (WT) (domain or fragment, mouse, UniProt Q64331 1032-1262, looked up)
chain: MALRRGPAVQATKAAAGTKKHDLSKWKYAELRDTINTSCDIELLAACREEFHRRLKVYHAWKSKNKKRNTETEQRAPKSVTDYDFAPFLNNSPQQNPAAQLPARQQEIDMKRQQRFFRIPFIRPADQYKDPQNKKKGWWYAHFDGPWIARQMELHPDKPPILLVAGKDDMEMCELNLEETGLTRKRGAEILPRQFEEIWERCGGIQYLQSAIESRQARPTYATAMLQNLLK
notes: The results call it CBD^1035-end, the methods give M1032; also called Myo6 CBD; CBD^1035-end; source: E. coli BL21 (DE3), purified (HisTrap IMAC, SEC); not shown: YFP, N-terminal, kept

Tests used:
[1] = target: T1, full-length wild-type Myo6, small insert isoform (FLMyo6 SI (WT)) (human, UniProt Q9UM54-2 1-1262; P0DP23 1-149); assay: pull-down; details: both partners purified
T1 construct: also called FLMyo6 (WT)

FLMyo6 SI (SAHmimic) = target: T2, FLMyo6 SI (SAHmimic) (human, UniProt Q9UM54-2 1-1262; P0DP23 1-149, Glu922 to Glu935 (EAERLRRIQEEMEK) replaced with EERKRREEEERKKREEE); assay: pull-down; anti-His pull-down on Ni2+ beads, His-partner and FLMyo6 SI (SAHmimic) 1/1 (10 µM), 1 µM extra calmodulin, 4 °C; which of the three buffers is not given; details: both partners purified
T2 construct: also called FLMyo6 (SAHmimic)

[2] = target: B1; assay: MST; ^YFPCBD kept at 100 nM, Myo6 partner titrated (16 two-fold dilutions), 25 °C, 20 mM Bis-Tris pH 6.5, 100 mM KCl, 1 mM DTT, 0.05% Tween-20; details: both partners purified
[3] = target: T3, Myo6 MD^Ins2/IQ/3HB (1-917) ( | human, UniProt Q29122 1-917; P0DP23 1-149); assay: MST; ^YFPCBD kept at 100 nM, Head sample titrated (16 two-fold dilutions), 25 °C, 20 mM Hepes pH 7.5, 50 mM NaCl, 2.5 mM MgCl2, 1 mM TCEP, 0.05% Tween-20, nucleotide-free (motor state NF); details: both partners purified
T3 construct: also called Myo6-917; Myo6 Head fragment

[4] = target: T3, Myo6 MD^Ins2/IQ/3HB (1-917); assay: MST; ^YFPCBD kept at 100 nM, Head sample titrated (16 two-fold dilutions), 25 °C, 20 mM Hepes pH 7.5, 50 mM NaCl, 2.5 mM MgCl2, 1 mM TCEP, 0.05% Tween-20, with 2 mM MgADP and 2 mM Na3VO4 (motor state ADP.VO4); details: both partners purified
Myo6 MD^Ins2 (2-816) = target: T4, Myo6 MD^Ins2 (2-816) ( | human, UniProt Q29122 2-816; P0DP23 1-149); assay: as above; details: both partners purified
T4 construct: also called Tail-less construct

Myo6 MD (1-789) = target: T5, Myo6 MD (1-789) (UniProt Q29122 1-789); assay: as above; details: both partners purified
T5 construct: myosin VI (Myo6) residues 1-789: Motor domain; also called Motor domain; source: Sf9/baculovirus, co-infected with human CaM virus, purified (anti-Flag resin)
T5 sequence (Q29122 1-789): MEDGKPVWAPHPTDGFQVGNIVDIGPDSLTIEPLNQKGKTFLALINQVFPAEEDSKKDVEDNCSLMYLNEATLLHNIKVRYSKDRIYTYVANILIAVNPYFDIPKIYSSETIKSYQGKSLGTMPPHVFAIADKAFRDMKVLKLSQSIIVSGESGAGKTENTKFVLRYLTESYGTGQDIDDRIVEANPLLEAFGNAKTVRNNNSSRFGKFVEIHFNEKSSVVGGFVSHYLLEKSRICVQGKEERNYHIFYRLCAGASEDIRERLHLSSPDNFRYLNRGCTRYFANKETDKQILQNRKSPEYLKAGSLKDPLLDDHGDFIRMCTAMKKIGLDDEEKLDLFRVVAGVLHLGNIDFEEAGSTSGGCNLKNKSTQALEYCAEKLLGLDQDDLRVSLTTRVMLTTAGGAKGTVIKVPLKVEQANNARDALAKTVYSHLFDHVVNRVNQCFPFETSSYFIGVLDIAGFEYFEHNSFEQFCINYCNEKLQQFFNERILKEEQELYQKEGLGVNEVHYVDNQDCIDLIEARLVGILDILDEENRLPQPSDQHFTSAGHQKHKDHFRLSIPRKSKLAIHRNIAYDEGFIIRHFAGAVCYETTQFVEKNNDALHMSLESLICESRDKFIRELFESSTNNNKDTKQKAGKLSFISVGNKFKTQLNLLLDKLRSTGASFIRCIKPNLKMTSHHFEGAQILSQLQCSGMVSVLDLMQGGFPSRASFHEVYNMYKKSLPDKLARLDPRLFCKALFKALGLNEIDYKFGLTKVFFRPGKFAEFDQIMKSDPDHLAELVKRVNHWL

Myo6 ^YFPCBD (WT) [5] = target: B2; assay: MST; ^YFPCBD kept at 100 nM, Myo6 partner titrated (16 two-fold dilutions), 25 °C, 20 mM Bis-Tris pH 6.5, 100 mM KCl, 1 mM DTT, 0.05% Tween-20; details: both partners purified
Myo6 ^YFPCBD (WT) [6] = target: B2; assay: MST; ^YFPCBD kept at 100 nM, Ins2/IQ/3HB titrated (16 two-fold dilutions), 25 °C, 20 mM Hepes pH 7.5, 50 mM NaCl, 2.5 mM MgCl2, 1 mM TCEP, 0.05% Tween-20; motor state '-' (no Motor domain); details: both partners purified
[7] = target: the molecule itself; assay: SEC-MALS; fragments of the 3HB/SAH junction on Superdex 200 10/300 Increase, 0.5 mL/min; titration; apparent KD, dimer to monomers
[8] = target: the molecule itself; assay: SEC-MALS; injection of 50 µL at 10 mg/mL in 10 mM Tris-HCl pH 7.5, 50 mM NaCl, 5 mM NaN3, 0.5 mM TCEP; peak concentration by the in-line refractometer

Binder: B1
binding result [1]: binds
binding result (FLMyo6 SI (SAHmimic)): binds

Binder: B2
binding result [2]: binds
Kd [3]: 726 nM
Kd [4]: 144 nM
Kd (Myo6 MD^Ins2 (2-816)): 343 nM
Kd (Myo6 MD (1-789)): 3920 nM

binding result (Myo6 ^YFPCBD (WT) [5]): binds
B3: ^HisGIPC1 (His-rTEV-GIPC1 255-end) (domain or fragment, mouse, UniProt Q9Z0G0 255-333, looked up)
chain: DLPSAFEEKAIEKVDDLLESYMGIRDTELAATMVELGKDKRNPDELAEALDERLGDFAFPDEFVFDVWGAIGDAKVGRY
notes: mouse GIPC1 truncated in the N-terminus at aa D255 to keep only the GH2 domain; The ATPase assays used His-mNeonGreen-GIPC1 238-end, the MNT-1 assays ^mCherryMST-GIPC1 (239-end); also called GH2 domain; source: E. coli BL21 (DE3), purified (IMAC, SEC); not shown: His6, N-terminal, kept

Kd (Myo6 ^YFPCBD (WT) [6]): 250 nM
B4: Myo6 Ins2/IQ/3HB (aa 783-917) (domain or fragment, human, UniProt Q9UM54-5 783-917, looked up)
chain: RVNHWLTCSRWKKVQWCSLSVIKLKNKIKYRAEACIKMQKTIRMWLCKRRHKPRIDGLVKVGTLKKRLDKFNEVVSVLKDGKPEMNKQIKNLEISIDTLMAKIKSTMMTQEQIQKEYDALVKSSEELLSALQKKK
notes: human myosin VI, aa 783-917 (insert-2, IQ, 3-helix bundle), from the human FLMyo6 no-insert construct; source: E. coli BL21 (DE3), purified (IMAC, SEC); not shown: His6, N-terminal, cleaved

B5: Myo6 875-940 (N-terminal 6xHis-tag, pET14) (domain or fragment, mouse, UniProt Q64331 875-940, looked up)
chain: EISIDALMAKIKSTMMTREQIQKEYDALVKSSEDLLSALQKKKQQEEEAERLRRIQEEMEKERKRR
notes: mouse myosin VI aa 875-940: 2nd and 3rd helix of the 3HB and first part of the SAH; also called aa 875-940; 875-940 peptide; source: E. coli BL21 (DE3), purified (IMAC, SEC)
Kd [7]: ~19000 nM

B6: Myo6 875-940 (his-rTEV-875-940, pProEX-HTb) (domain or fragment, mouse, UniProt Q64331 875-940, looked up)
chain: EISIDALMAKIKSTMMTREQIQKEYDALVKSSEDLLSALQKKKQQEEEAERLRRIQEEMEKERKRR
notes: mouse myosin VI aa 875-940; Made for crystallization; also called Myo6 875-940 WT; 875-940 peptide; source: E. coli BL21 (DE3), purified (IMAC, rTEV, SEC); not shown: His6, N-terminal, cleaved
stoichiometry N [8]: 2
